Common to all, as to conditions: both partners purified
One test deals with T1, Atg5 (S. cerevisiae, UniProt Q12380 1-294).
T1 construct: Atg5, S. cerevisiae; in the co-purification with Atg16 (1–46) the GST was still on the protein while it was held on glutathione beads; also called GST-Atg5; source: E. coli Rosetta pLysS, on glutathione beads, cleaved off with thrombin; not shown: GST, N-terminal, cleaved
T1 sequence (looked up): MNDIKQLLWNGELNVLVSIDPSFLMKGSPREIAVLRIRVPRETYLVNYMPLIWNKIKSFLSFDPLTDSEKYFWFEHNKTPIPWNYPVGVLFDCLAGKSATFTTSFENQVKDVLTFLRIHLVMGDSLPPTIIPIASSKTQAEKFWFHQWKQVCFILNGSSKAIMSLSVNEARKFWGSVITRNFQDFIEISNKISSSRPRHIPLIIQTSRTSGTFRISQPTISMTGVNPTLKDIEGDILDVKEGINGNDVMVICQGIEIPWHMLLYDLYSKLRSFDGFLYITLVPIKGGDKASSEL
Description: SEC; separately purified proteins mixed in a molar ratio 1:1 for 30 min at 4°C or on ice; the resulting complex purified on Superdex S200 16/60.

Test [1] concerns the target T2, Atg5-mCherry-Atg16 (1–46) complex (S. cerevisiae, UniProt Q12380 1-294; Q03818 1-46).
T2 construct: Atg5, S. cerevisiae; Atg16, S. cerevisiae, first 46 amino acids; a TEV site follows the His tag of Atg5; no cleavage is described; source: E. coli Rosetta pLysS, co-expressed, purified (Ni-NTA, Superdex 200); not shown: mCherry, C-terminal, kept
T2 sequence (looked up) 1: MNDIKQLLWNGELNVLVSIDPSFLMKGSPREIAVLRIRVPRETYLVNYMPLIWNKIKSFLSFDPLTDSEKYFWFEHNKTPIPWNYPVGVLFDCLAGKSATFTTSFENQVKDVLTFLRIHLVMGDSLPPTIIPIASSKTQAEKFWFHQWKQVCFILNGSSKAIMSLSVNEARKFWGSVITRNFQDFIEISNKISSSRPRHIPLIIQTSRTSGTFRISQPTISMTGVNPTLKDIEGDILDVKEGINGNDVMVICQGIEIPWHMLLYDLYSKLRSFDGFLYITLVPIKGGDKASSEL
T2 sequence (looked up) 2: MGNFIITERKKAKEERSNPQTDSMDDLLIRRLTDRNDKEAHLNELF
Description: microscopy-based protein-protein interaction assay on beads; glutathione beads coated with GST-fused proteins at 30 µM, Atg5-mCherry-Atg16 (1–46) 18 µM, equilibrium (Figure 3B, C).

The target in another test is T3, Atg5-Atg16 (1–46) (S. cerevisiae, UniProt Q12380 1-294; Q03818 1-46).
T3 construct: Atg5, S. cerevisiae; Atg16, S. cerevisiae, first 46 amino acids; the His tag of Atg5 is followed by a TEV site; also called Atg5 stabilized with the N-terminal helix of Atg16; Atg5-Atg16 (1–46) wild type; source: E. coli, co-expressed and purified in complex
T3 sequence 1: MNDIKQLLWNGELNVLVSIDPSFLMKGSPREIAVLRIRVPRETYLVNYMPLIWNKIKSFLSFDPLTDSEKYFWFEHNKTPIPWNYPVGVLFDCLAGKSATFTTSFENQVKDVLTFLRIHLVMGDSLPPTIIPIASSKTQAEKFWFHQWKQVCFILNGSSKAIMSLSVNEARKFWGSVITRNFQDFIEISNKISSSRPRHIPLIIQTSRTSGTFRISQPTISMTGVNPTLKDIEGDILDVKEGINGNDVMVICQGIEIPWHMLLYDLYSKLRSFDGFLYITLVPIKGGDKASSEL
T3 sequence 2: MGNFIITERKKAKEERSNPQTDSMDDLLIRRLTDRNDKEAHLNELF
Kind of test: pull-down; GST-fused bait 20 µM and GST-free prey 5 µM with glutathione Sepharose 4B, 1 hr at 4°C; washed with 25 mM HEPES pH 7.5, 150 mM NaCl, 1 mM DTT; anti-Atg5 Western blot (Figure 2E, Figure 3—figure supplement 1, Figure 4C).

In a further test the target is T4, Atg12~Atg5-Atg16 complex (S. cerevisiae, UniProt P38316 1-186; Q12380 1-294; Q03818 1-150, conjugated to Atg5 (Atg12~Atg5 protein conjugate) | conjugated to Atg12).
T4 construct: Atg12, S. cerevisiae; Atg5, S. cerevisiae; Atg16, S. cerevisiae; conjugate made by co-expression with Atg7 and Atg10 (SMC131); details in Romanov et al., 2012; also called E3-like complex; source: E. coli Rosetta pLysS; Atg12~Atg5 conjugate mixed 1:1 with purified Atg16, purified by size exclusion chromatography; not shown: GST, N-terminal, cleaved; copies: + +
T4 sequence (looked up) 1: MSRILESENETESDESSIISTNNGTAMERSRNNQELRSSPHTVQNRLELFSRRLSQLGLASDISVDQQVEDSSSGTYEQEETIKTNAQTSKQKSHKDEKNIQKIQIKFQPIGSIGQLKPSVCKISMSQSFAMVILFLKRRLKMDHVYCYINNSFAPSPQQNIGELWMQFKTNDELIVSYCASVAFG
T4 sequence (looked up) 2: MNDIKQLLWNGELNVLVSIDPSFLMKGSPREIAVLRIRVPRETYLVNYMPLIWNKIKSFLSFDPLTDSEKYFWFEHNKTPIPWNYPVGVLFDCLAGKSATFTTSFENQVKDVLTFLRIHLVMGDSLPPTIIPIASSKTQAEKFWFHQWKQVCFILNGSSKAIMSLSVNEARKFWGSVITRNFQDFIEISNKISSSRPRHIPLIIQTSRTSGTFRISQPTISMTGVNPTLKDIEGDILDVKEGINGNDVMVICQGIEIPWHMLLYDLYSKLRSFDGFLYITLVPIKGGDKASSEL
T4 sequence (looked up) 3: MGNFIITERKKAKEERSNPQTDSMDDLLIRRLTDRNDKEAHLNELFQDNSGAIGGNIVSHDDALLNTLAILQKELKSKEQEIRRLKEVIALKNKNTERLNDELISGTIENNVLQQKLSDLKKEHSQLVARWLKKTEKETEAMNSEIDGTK
Description: pull-down; GST-fused bait 5 µM and GST-free prey 5 µM with glutathione Sepharose 4B, 1 hr at 4°C; washed with 25 mM HEPES pH 7.5, 150 mM NaCl, 1 mM DTT and 0.1% TritonX100; Western blot (Figures 1A, 1C, 2A, 2C).

A further test concerns the target T5, Atg5-Atg16 complex (S. cerevisiae, UniProt Q12380 1-294; Q03818 1-150).
T5 construct: Atg5, S. cerevisiae; Atg16, S. cerevisiae; source: E. coli Rosetta pLysS; Atg5 cleaved from GST mixed 1:1 with purified Atg16, purified by size exclusion chromatography; not shown: GST, N-terminal, cleaved
T5 sequence (looked up) 1: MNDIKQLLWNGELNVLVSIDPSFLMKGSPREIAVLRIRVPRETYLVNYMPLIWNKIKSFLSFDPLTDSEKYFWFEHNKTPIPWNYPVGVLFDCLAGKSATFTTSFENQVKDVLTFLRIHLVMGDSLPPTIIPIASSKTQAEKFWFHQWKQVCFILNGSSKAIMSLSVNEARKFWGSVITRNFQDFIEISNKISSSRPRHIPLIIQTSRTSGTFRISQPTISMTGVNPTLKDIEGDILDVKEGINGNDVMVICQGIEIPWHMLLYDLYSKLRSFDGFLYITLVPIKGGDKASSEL
T5 sequence (looked up) 2: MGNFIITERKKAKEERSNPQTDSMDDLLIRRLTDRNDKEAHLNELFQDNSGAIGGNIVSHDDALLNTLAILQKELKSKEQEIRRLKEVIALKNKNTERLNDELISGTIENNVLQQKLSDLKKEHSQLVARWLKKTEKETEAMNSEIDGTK
Kind of test: pull-down; GST-fused bait 20 µM and GST-free prey 5 µM with glutathione Sepharose 4B, 1 hr at 4°C; washed with 25 mM HEPES pH 7.5, 150 mM NaCl, 1 mM DTT; anti-Atg5 Western blot (Figure 2E, Figure 3—figure supplement 1, Figure 4C).

A further test addresses T6, GFP-Atg8∆R117 (S. cerevisiae, UniProt P38182 1-116).
T6 construct: Atg8, S. cerevisiae, without its last residue R117; also called meGFP-Atg8∆R117; 6xHis-meGFP-Atg8∆R117; source: E. coli Rosetta pLysS, purified; not shown: meGFP, N-terminal, kept
T6 sequence (looked up): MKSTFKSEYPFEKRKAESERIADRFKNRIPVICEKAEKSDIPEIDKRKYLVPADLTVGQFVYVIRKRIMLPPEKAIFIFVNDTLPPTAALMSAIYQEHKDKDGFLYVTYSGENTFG
Description: microscopy-based competition assay on beads; beads coated with GST-Atg19(365–415) at 30 µM, Atg5-mCherry-Atg16 (1–46) 18 µM; then GFP-Atg8∆R117 18 µM (1x), then Atg8 400 µM (22x); 25 mM HEPES pH 7.5, 150 mM NaCl, 1 mM DTT (Figure 3E, F).

B1: Atg16-meGFP (natural protein, S. cerevisiae, UniProt Q03818 1-150, looked up)
chain: MGNFIITERKKAKEERSNPQTDSMDDLLIRRLTDRNDKEAHLNELFQDNSGAIGGNIVSHDDALLNTLAILQKELKSKEQEIRRLKEVIALKNKNTERLNDELISGTIENNVLQQKLSDLKKEHSQLVARWLKKTEKETEAMNSEIDGTK
notes: Atg16, S. cerevisiae; source: E. coli Rosetta pLysS, purified; not shown: meGFP, C-terminal, kept
On to B1, for which, in the test with Atg5, the binding result was “binds”.

B2: GST-Atg19(365–407) (domain or fragment, S. cerevisiae, UniProt P35193 365-407, looked up)
chain: SAESLQASQEPFYSFQIDTLPELDDSSIISTSISLSYDGDDNE
notes: Atg19, S. cerevisiae; also called Atg19 C-terminal domain with the canonical AIM motif deleted; source: E. coli Rosetta pLysS, purified; not shown: GST, N-terminal, kept
B2: the binding result (in test [1]; in the test with Atg5-Atg16 (1–46)) was “binds” throughout.

B3: GST-Atg34 (natural protein, S. cerevisiae, UniProt Q12292 1-412, looked up)
chain: MKIAVETTLFDFFVIDQFKKSTFSAPNTKVDTIKGCINKFIEQFNVYDEQHIFWQPPGKSNVRLLSNANDFGQLGNFLHKKIKCNIFIGEEALRKYDLNICGPYDKFVENSDPSVKKVVNRDDVMLSRKCLNIISEQLSILEKSISKAQNQVLQSSEVEGKKCIILPEDKPELIKFFSKFETSVQLQEVYEGYKVYEKLLQKFGGQKKRMESFLNENTPMSGAEAIKQINISEELKEKGERLTTPNDPLLHVEVSNEDNSLHFILYNKTNIIIPGNCTFEFSSQISEVFSIKMGPHEIGIKGQKELWFFPSLPTPLSNYTMKVVNQDGETILVGKCADSNEITLKSPLASFSTGSFQTGSFHTLQDPTNVFRADALSSPDESSIMSTPFLGETDEVYNSGSTLSRPFTWEEI
notes: Atg34, S. cerevisiae cargo receptor; also called α-mannosidase (Ams1) receptor; source: E. coli Rosetta pLysS, purified; not shown: GST, N-terminal, kept
With B3, the binding result with Atg12~Atg5-Atg16 complex is reported as “binds”.

B4: GST-Atg19(365–415) (domain or fragment, S. cerevisiae, UniProt P35193 365-415, looked up)
chain: SAESLQASQEPFYSFQIDTLPELDDSSIISTSISLSYDGDDNEKALTWEEL
notes: Atg19, S. cerevisiae, C-terminal domain; also called Atg19 C-terminal domain; Atg19 CTD (365-415); source: E. coli Rosetta pLysS, purified; not shown: GST, N-terminal, kept
As to B4, the binding result (in test [1]; with Atg5-Atg16 (1–46); in the test with Atg5-Atg16 complex; in the test with GFP-Atg8∆R117) was “binds” in each case.

Source of the values: publication PMC5148612, “Mechanism of cargo-directed Atg8 conjugation during selective autophagy” (eLife, 2016).
